Data on one molecule can be found in patent US20230296611A1 (INNATE PHARMA, published 2023).

One assay concerns the target T1, human MICA*008 (human, UniProt Q29983 24-297).
T1 construct: C1R-neo cells transfected with human MICA*008, formalin fixed and paraffin embedded (or live cells for flow cytometry); transmembrane and cytoplasmic parts are not in the entry; also called C1R MICA*008 cells
T1 chain: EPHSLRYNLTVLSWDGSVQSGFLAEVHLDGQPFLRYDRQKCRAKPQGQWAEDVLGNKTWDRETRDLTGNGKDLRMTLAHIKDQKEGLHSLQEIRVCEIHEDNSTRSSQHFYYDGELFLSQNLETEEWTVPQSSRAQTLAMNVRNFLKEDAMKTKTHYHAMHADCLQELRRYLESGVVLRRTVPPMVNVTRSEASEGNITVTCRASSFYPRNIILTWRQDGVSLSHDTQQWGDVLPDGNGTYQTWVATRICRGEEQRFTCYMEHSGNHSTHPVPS
The assay is described as follows: IHC with hybridoma supernatant on FFPE C1R MICA*008 cell pellet, Ventana, CC1 or CC2. As for the experimental part: (§1) In parallel to the phenotyping by flow cytometry, the cell lines were fixed in formalin and embedded in paraffin. Briefly, 20×10⁶ to 40×10⁶ cells were fixed for 1 hour with formalin 4%. The cells were washed twice in PBS, and there were resuspended in Histogel. The cell pellets were dehydrated and embedded in paraffin. For each cell line, several FFPE cell pellets were made A mix of cells (C1R MICA*008 (15.10⁶ cells) and C1R MICB (15.10⁶ cells)) was also were embedded in paraffin. Sectioning of FFPE cell pellets was performed and MICA/B staining done by IHC. Briefly, 5 μm-thick sections were incubated dewaxed, submitted to an antigen retrieval step and incubated with immune or non-immune sera, hybridoma supernatants, chain combinations Abs or purified and commercial Abs followed by a signal amplification step. Enzymatic revelation was finally performed using 3, 3′-diaminobenzidine (DAB). For the IHC stainings with the mouse sera, staining interpretation was done by attributing a percentage of stained cells in the pellet section as well as an intensity score using the following criterion: “−”: negative staining; “+”: weak positive staining; “++”: intermediate IHC signal in intensity and “+++”: strong positive staining. […]

Another assay concerns the target T2, human MICA*001 (human, UniProt Q29983 24-297).
T2 construct: C1R-neo cells transfected with human MICA*001, formalin fixed and paraffin embedded (or live cells for flow cytometry); also called C1R MICA*001 cells
T2 sequence: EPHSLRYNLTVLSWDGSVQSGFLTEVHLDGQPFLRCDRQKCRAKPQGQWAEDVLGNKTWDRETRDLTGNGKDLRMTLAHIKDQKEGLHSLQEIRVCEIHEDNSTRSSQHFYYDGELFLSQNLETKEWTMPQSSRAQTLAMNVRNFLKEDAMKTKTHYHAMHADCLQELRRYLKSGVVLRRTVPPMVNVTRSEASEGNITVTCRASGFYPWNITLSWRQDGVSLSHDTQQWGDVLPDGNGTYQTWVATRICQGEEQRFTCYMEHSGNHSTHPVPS
The assay is described as follows: IHC with hybridoma supernatant on FFPE C1R MICA*001 cell pellet, Ventana, CC1 or CC2. As for the experimental part: as §1

B1: antibody 12C9 (antibody, V domains shown)
VH: EIQLQQSGPELEKPGASVKISCKASGYAFTGYYMNWMKQRNGKSLDWIGTINPYYGSSTYNQKFKGKATLTVDESSSTAYMQLTSLTSEDSAVYYCARVDGDHGYFDYWGRGTTLTVSS
VL: DVVMTQTPLSLPVSLGDQASISCRSSQSLVHSNGNTYLHWYLQKPGQSPKLLIYKVSTRFSGVPDRFSGSGSGTDFTLKISRVEAEDLGVYFCSQSTHVPFTFGSGTKLEIK
notes: Produced as a mouse antibody with mouse gamma1 chain (mIgG1 isotype)
As for B1, the binding result with human MICA*008 and in the assay with human MICA*001 was “binds” throughout.
